What was measured:
B16 cells = experiment: Radiation and IFN signaling on activation of the ISREx4 promoter (luciferase); format: cell-based, murine; details: B16 cells transduced with AAV8-ISREx4-LucmiR122T
Method: To this end, B16 cells received 8 Gy or 0 Gy as described above and then were transduced with AAV8-ISREx4-LucmiR122T (1×10^5 viral genomes/cell) and 48 h later 1,000 IU of either IFN-α, IFN-β or IFN-γ were added to the culture and luciferase activity was measured 48 h later as described above.

murine STING = biological target: T1, murine STING (Mus musculus, UniProt Q3TBT3); details: cited from earlier work
T1 sequence (Q3TBT3 1-378): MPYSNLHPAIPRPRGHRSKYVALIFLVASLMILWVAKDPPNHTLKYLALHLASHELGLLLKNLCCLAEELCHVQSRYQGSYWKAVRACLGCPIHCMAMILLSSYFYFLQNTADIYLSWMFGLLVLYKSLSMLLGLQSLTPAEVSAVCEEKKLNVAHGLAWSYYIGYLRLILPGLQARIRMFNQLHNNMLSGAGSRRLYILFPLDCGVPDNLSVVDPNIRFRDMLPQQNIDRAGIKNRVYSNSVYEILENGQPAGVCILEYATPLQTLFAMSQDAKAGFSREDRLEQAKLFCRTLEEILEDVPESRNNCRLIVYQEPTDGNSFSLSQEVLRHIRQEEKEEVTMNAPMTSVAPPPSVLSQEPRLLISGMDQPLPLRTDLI

[1] = system: MC38 cell lines stably expressing hSTINGmut; experiment: Luciferase activity under chemokine promoters; format: cell-based, murine; details: for luciferase activity upon DMXAA: DMXAA 50 μg/mL, 3 or 6 h, compared to the IFN-β promoters; for luciferase activity in the absence of DMXAA (leaky expression): vehicle
Method: The CXCL9-promoter (CXCL9 according to SEQ ID NO: 23) and the CXCL10-promoter (CXCL10 according to SEQ ID NO: 24) were used for the following experiment. To this end, lentiviral vectors encoding luciferase under the control of these two different promoters were constructed. […] In addition, the lentiviral vectors encoding the short IFN-β A promoter, the short IFN-β B promoter, the short IFN-β C promoter described in experiment 1 were used as a comparison. […] After another 3 or 6 h, cells were harvested and luciferase activity measured as described in experiment 1.

[2] = system: MC38 cell lines stably expressing hSTINGmut; experiment: scIL-12 mRNA and protein expression under STING-activity dependent promoters; format: cell-based, murine; details: for scIL-12 mRNA or protein expression upon DMXAA: DMXAA 50 μg/mL
Excerpt: The CXCL9-promoter and the CXCL10-promoter from experiment 2, and a full length IFN-β-promoter (IFN-β according to SEQ ID NO: 25) were used for the following experiment. To this end, lentiviral vectors encoding murine scIL-12 under the control of these three different promoters were constructed. […] After the indicated time points, cells were harvested. The cell lysate was used to measure scIL-12 mRNA expression by qPCR as described before (example 1, experiment 1), whereas the supernatant was used to measure secreted scIL-12 protein in NUNC MaxiSorp flat-bottom 96-well plates using an ELISA assay kit (OptEIA, Mouse IL-12 (p70), BD Biosciences, San Diego, CA USA), following manufacturer's instructions.

[3] = system: HEK293T cells stably expressing hSTINGmut; experiment: Luciferase activity under synthetic promoters; format: cell-based, human; details: for luciferase activity upon DMXAA (inducibility): DMXAA 50 μg/mL; for luciferase activity in the absence of DMXAA (leakage): vehicle
Excerpt: (§1) Seven different promoters were generated, namely short STATx4 (4 STAT motifs separated by 6 nucleotides according to SEQ ID NO: 26), IRSF3×4 (4 IRSF3 motifs separated by 20 nucleotides according to SEQ ID NO: 27), short IRSF3×4 (4 IRSF3 motifs separated by 6 nucleotides according to SEQ ID NO: 28), ISREx4 (4 ISRE motifs separated by 20 nucleotides according to SEQ ID NO: 12), short ISREx4 (4 ISRE motifs separated by 6 nucleotides according to SEQ ID NO: 13), NFκBx4 (4 NFκB motifs separated by 20 nucleotides according to SEQ ID NO: 29) and short NFκBx4 (4 NFκB motifs separated by 6 nucleotides according to SEQ ID NO: 30). […] In addition, a plasmid containing the luciferase sequence under the control of the murine IFN-β-promoter (mIFN-β) and a plasmid containing the luciferase sequence under the control of CXCL10-promoter were used as controls. Either MC38 cells or human HEK293T cells, both which stably expressed hSTINGmut as described above (example 1), were transfected with the indicated plasmids using Lipofectamine3000 according to the manufacturers protocol, whereas a negative control was mock-transfected (Basic).

[4] = system: MC38 cells stably expressing hSTINGmut; experiment: Luciferase activity under synthetic promoters; format: cell-based, murine; details: DMXAA 50 μg/mL
Excerpt: as §1

[5] = 1,000 IU interferon alone (0 Gy)
[6] = interferon together with radiation 8 Gy

IFN-α
luciferase activity (B16 cells; [5]): significantly increased luciferase activity
luciferase activity (B16 cells; [6]): induced luciferase activity dramatically

O=C(O)Cc1cccc2c(=O)cc(-c3ccccc3)oc12 [FAA, flavone-8-acetic acid]
activation of murine STING (murine STING): activated

B1: CXCL9-promoter: CXCL9 promoter according to SEQ ID NO: 23 (nucleic acid, listed as Mus musculus)
DNA: GACACAGACATCTCGTGAAACATCTGGAAAAGGTAGCAGGGAACGGGACAGCAGTAGCTTATGCAACTAATCTAGCAATTACAATGATAGGAAACTGTAGCCACGGTGAGACGAAATGGATTTACCCTCAACAAATTAAGAAGCTTTGACTTGTGAGGAAAGGCAGTTTGAGTCGCCATATAGTGTCATGTCCCACGTGGGAAGTACATCTCCAACCTTCATTGTACAACATTAATATAGTCATTGTATAATCTATTCCACATCCAGGTAGCAACTTTGCCTGGGGGTGGTTTCACATCCCTTACTATAAACTCCCCGTTTATGTGAAATGGAAGTAGAACATGCAGAAATTCCCTGGGATCTGAGAGTAGGGTTTTCCCCAGGACGATCAATTTGTGGTTAGTTTAGTTCTTCTAGGTCAGCTGAGGAGACCAGCCAATCAGAGACGGGAAGGAAAAGGGATTTCCTAAATAAATATGATCCCCAAGAACATGCTCTCTAAAGACATTCTCGGACTTCACTCCAACACAGTGACTCAATAGAACTCAGCTCTGCC
modifications: misc_feature 1..556 CXCL9-promoter
luciferase activity upon DMXAA [1]: significantly higher luciferase activities
luciferase activity in the absence of DMXAA (leaky expression) [1]: significant luciferase activity
scIL-12 mRNA or protein expression upon DMXAA [2]: poor

B2: CXCL10-promoter: CXCL10 promoter according to SEQ ID NO: 24 (nucleic acid, listed as Mus musculus)
DNA: TCTAACTGTTCACTAAGTTGTATAGACTTTGGATCTGGCTAAATTTGGCGTGTGATTTTTTTTTAAAGTTTATTCCAAGTATTTTATAATAAAGCATATGAAGTAAAAAGCAAAAATAAACAGTGTAAACACAACAAATGTAAAAACCATGGTTAGAACCTGACTTAGATATCAGTTCTGTGTTTTATTTATGAGAGAAGGAAGATGAGAATTAAAGCCATTTCCAGACTTATTCTGCAAGGCACTGCATCTGATTTCTCAAACAGCTCACGCTTTGGAAAGTGAAACTTACCTCACTCGTTAAAAATTAAAAGGAGCACAAGAGGGGAGAGGGAAATTCCAAGTTCATGGGTCACAATAAACACAAGCAATGCCCTCGGTTTACAGGGGACTTCCCTCGGGTTGCGGAGCCTTGCTGAGTCATCTCCAAAGTCAGCCAATCAGGACTCAGGGAGGGAAACTCTTTGCAGATAAATACTCCTCAGCAGCCGGCACTCGAGAAGCGCTTCATCCACCGCTGAGAGACATCCCGAGCCAACCTTCCGGAAGCCTCCCCATCAGCACC
modifications: misc_feature 1..565 CXCL10-promoter
luciferase activity upon DMXAA [1]: significantly higher luciferase activities
luciferase activity in the absence of DMXAA (leaky expression) [1]: significant luciferase activity
scIL-12 mRNA or protein expression upon DMXAA [2]: highly upregulated
scIL-12 production in the absence of DMXAA (leakage) ([2]; vehicle): significant leakage
luciferase activity upon DMXAA (inducibility) [3]: highest inducibility
luciferase activity in the absence of DMXAA (leakage) [3]: considerable leakage

B3: IFN-β-promoter: full length IFN-β-promoter according to SEQ ID NO: 25 (nucleic acid, listed as Mus musculus)
DNA: CCAGGATGTGGGGTTCTCTCCCAAAGGGAGCTATGGCCCATTGATGTGCCATTTCTCTTATAGTACACTATTGTAAGCCCCCTGGGAGCTCACAGAGACCCTCTCCCACCATCCCACTATTTCAAAGGGCAGCAGCTGTGCCATCCTTTCAGGATGAGCAGCTACTCTGCCTGGCTTTTCAGTGGACACTTTGGCTGTTTGAGAGTTCTTTTATCTTCAGGGCTGTCTCCTTTCTGTTCTTCTCTCCTGGATATTTCTCTTCCTTTGCTCCAGCAATTGGTGAAACTGTACAAGATTTTATAAATCCTTAGTTTGTATATATTTTAACCCAGTACATAGCATATAAAATAGCCAGGAGCTTGAATAAAATGAATATTAGAAGCTGTTAGAATAAGAGAAAATGACAGAGGAAAACTGAAAGGGAGAACTGAAAGTGGGAAATTCCTCTGAGGCAGAAAGGACCATCCCTTATAAATAGCACAGGCCATGAAGGAAGATCATTCTCACTGCAGCCTTTGACAGCCTTTGCCTCATCTTGCAGGTAGCAGCCGACACCAGCCTGGCTTCCATC
modifications: misc_feature 1..571 IFNb1-promoter
scIL-12 mRNA or protein expression upon DMXAA [2]: poor

B4: short STAT-promoter: 4 STAT motifs separated by 6 nucleotides according to SEQ ID NO: 26 (nucleic acid)
DNA: ATCTCTGCGATGAACCTCACTTCGCTAGAAATCTCTGCGATGAACCTCACTTCGCTAGAAATATCTCTGCGATGAACCTCACTTCGCTAGAAATCTCTGCGATGAACCTCACTTCGCTAGAAGTGCCTCTTATGATCTGGATCTCGAGCCATGGTCGAGGCCTGTAGGCGTGTACGGTGGGAGGCTTATATAAGCAGAGCTC
modifications: misc_feature 1..202 STATx4
luciferase activity upon DMXAA (inducibility) [4]: poor inducibility

B5: ISREx4-promoter: 4 ISRE motifs separated by 20 nucleotides according to SEQ ID NO: 12 (nucleic acid)
DNA: ATCTCTGCGATGAACCTCACAGTTTCGCTTTCTATCTCTGCGATGAACCTCACAGTTTCGCTTTCTATCTCTGCGATGAACCTCACAGTTTCGCTTTCTATCTCTGCGATGAACCTCACAGTTTCGCTTTCTGTGCCTCTTATGATCTGGATCTCGAGCCATGGTCGAGGCCTGTAGGCGTGTACGGTGGGAGGCTTATATAAGCAGAGCTC
modifications: misc_feature 1..212 ISREx4
luciferase activity upon DMXAA (inducibility) [3]: highest inducibility
luciferase activity in the absence of DMXAA (leakage) [3]: undetectable leakage

B6: IFN-γ: exogenously added interferon, 1,000 IU (protein, UniProt P01579 24-161, looked up)
Interferon gamma: QDPYVKEAENLKKYFNAGHSDVADNGTLFLGILKNWKEESDRKIMQSQIVSFYFKLFKNFKDDQSIQKSVETIKEDMNVKFFNSNKKKRDDFEKLTNYSVTDLNVQRKAIHELIQVMAELSPAAKTGKRKRSQMLFRG
luciferase activity (B16 cells; [5]): significantly increased luciferase activity
luciferase activity (B16 cells; [6]): induced luciferase activity dramatically
